Results as given in paper PMC11039992.

B1: MAC-RBM41-WT [human] / DEAH-box RNA helicase DHX8 [human (endogenous in Flp-In T-REx 293)] (parent)
chain 1: MKRVNSCVKSDEHVLEELETEGERQLKSLLQHQLDTSVSIEECMSKKESFAPGTMYKPFGKEAAGTMTLSQFQTLHEKDQETASLRELGLNETEILIWKSHVSGEKKTKLRATPEAIQNRLQDIEERISERQRILCLPQRFAKSKQLTRREMEIEKSLFQGADRHSFLKALYYQDEPQKKNKGDPMNNLESFYQEMIMKKRLEEFQLMRGEPFASHSLVSATSVGDSGTAESPSLLQDKGKQAAQGKGPSLHVANVIDFSPEQCWTGPKKLTQPIEFVPEDEIQRNRLSEEEIRKIPMFSSYNPGEPNKVLYLKNLSPRVTERDLVSLFARFQEKKGPPIQFRMMTGRMRGQAFITFPNKEIAWQALHLVNGYKLHGKILVIEFGKNKKQRSNLQATSLISCATGSTTEISGS
chain 2: MAVAVAMAGALIGSEPGPAEELAKLEYLSLVSKVCTELDNHLGINDKDLAEFVISLAEKNTTFDTFKASLVKNGAEFTDSLISNLLRLIQTMRPPAKPSTSKDPVVKPKTEKEKLKELFPVLCQPDNPSVRTMLDEDDVKVAVDVLKELEALMPSAAGQEKQRDAEHRDRTKKKKRSRSRDRNRDRDRDRERNRDRDHKRRHRSRSRSRSRTRERNKVKSRYRSRSRSQSPPKDRKDRDKYGERNLDRWRDKHVDRPPPEEPTIGDIYNGKVTSIMQFGCFVQLEGLRKRWEGLVHISELRREGRVANVADVVSKGQRVKVKVLSFTGTKTSLSMKDVDQETGEDLNPNRRRNLVGETNEETSMRNPDRPTHLSLVSAPEVEDDSLERKRLTRISDPEKWEIKQMIAANVLSKEEFPDFDEETGILPKVDDEEDEDLEIELVEEEPPFLRGHTKQSMDMSPIKIVKNPDGSLSQAAMMQSALAKERRELKQAQREAEMDSIPMGLNKHWVDPLPDAEGRQIAANMRGIGMMPNDIPEWKKHAFGGNKASYGKKTQMSILEQRESLPIYKLKEQLVQAVHDNQILIVIGETGSGKTTQITQYLAEAGYTSRGKIGCTQPRRVAAMSVAKRVSEEFGCCLGQEVGYTIRFEDCTSPETVIKYMTDGMLLRECLIDPDLTQYAIIMLDEAHERTIHTDVLFGLLKKTVQKRQDMKLIVTSATLDAVKFSQYFYEAPIFTIPGRTYPVEILYTKEPETDYLDASLITVMQIHLTEPPGDILVFLTGQEEIDTACEILYERMKSLGPDVPELIILPVYSALPSEMQTRIFDPAPPGSRKVVIATNIAETSLTIDGIYYVVDPGFVKQKVYNSKTGIDQLVVTPISQAQAKQRAGRAGRTGPGKCYRLYTERAYRDEMLTTNVPEIQRTNLASTVLSLKAMGINDLLSFDFMDAPPMETLITAMEQLYTLGALDDEGLLTRLGRRMAEFPLEPMLCKMLIMSVHLGCSEEMLTIVSMLSVQNVFYRPKDKQALADQKKAKFHQTEGDHLTLLAVYNSWKNNKFSNPWCYENFIQARSLRRAQDIRKQMLGIMDRHKLDVVSCGKSTVRVQKAICSGFFRNAAKKDPQEGYRTLIDQQVVYIHPSSALFNRQPEWVVYHELVLTTKEYMREVTTIDPRWLVEFAPAFFKVSDPTKLSKQKKQQRLEPLYNRYEEPNAWRISRAFRRR

Variants of: B1
Test: BioID proximity labeling (mass spectrometry spectral counts)
Details: with DEAH-box RNA helicase DHX8 [human (endogenous in Flp-In T-REx 293)]; MAC-tagged protein expression induced with tetracycline in the presence of biotin for 24 h; three independent replicates; parent: 23; read off a plot

response (spectral count) | Variant
19 | chain 1 F354A
19 | chain 1 Y312A
23 | chain 1 Q352A
23 | chain 1 Y312A F354A
